Data: patent US20250282881A1 (SHANGHAI EPIMAB BIOTHERAPEUTICS, published 2025)
Positions count from the first letter of the chain named.

B1: EM1007-mAb044c-13 (antibody, human IgG1, kappa, L234A L235A, V domains shown)
VH: EVQLVQSGAEVKKPGSSVKVSCKASGGTFSSSWMNWVRQAPGQGLEWMGRIYPGDEITNYNGKFKDRVTITADKSTSTAYMELSSLRSEDTAVYYCARDLLMPYWGQGTLVTVSS
VL: DIVMTQTAFSNPVTLGTSASISCRSSKSLLYSNGITYLYWYLQKPGQSPHLLIYQMSNLAPGVPDRFSSSGSGTDFTLRISRVEAEDVGIYYCAQNLELPFTFGSGTKLEIKR
B2: HuEM1007-044-4 (antibody, human IgG1, kappa, L234A L235A, V domains shown)
VH: B1 VH with G27H, R38K, Q43K, M48I, R67K, I70L
VL: DIVMTQTPLSLPVTPGEPASISCRSSKSLLYSNGITYLYWYLQKPGQSPQLLIYQMSNLAPGVPDRFSGSGSGTDFTLKISRVEAEDVGVYYCAQNLELPFTFGQGTKLEIKR
notes: Humanized anti-OX40, human IgG1 LALA / kappa
B3: EM1007-mAb044c-9 (antibody, human IgG1, kappa, L234A L235A, V domains shown)
VH: QVQLQQSGPELVKPGASVTISCKASGHAFSSSWMNWVKQRPGKGLEWIGRIYPGDEITNYNAKFKDKATLTADKSSSTAYMQLSSLTFEDSAVYFCARDLLMPYWGQGTLVTVSA
VL: B1 VL
B4: HuEM1007-044-7 (antibody, human IgG1, kappa, L234A L235A, V domains shown)
VH: B1 VH with G27H, M48I, I70L
VL: B2 VL with G69S
notes: as for B2
B5: EM1007-mAb044c-10 (antibody, human IgG1, kappa, L234A L235A, V domains shown)
VH: B3 VH with A62G
VL: B1 VL with G34A
B6: HuEM1007-044-8 (antibody, human IgG1, kappa, L234A L235A, V domains shown)
VH: B1 VH with G27H, R38K, Q43K, M48I, R67K, I70L
VL: B2 VL with G69S
notes: as for B2
B7: EM1007-mAb044c-11 (antibody, human IgG1, kappa, L234A L235A, V domains shown)
VH: B3 VH
VL: B1 VL with G34A
B8: EM1007-mAb044c-12 (antibody, human IgG1, kappa, L234A L235A, V domains shown)
VH: B3 VH with A62G
VL: B2 VL
B9: EM1007-mAb044c-15 (antibody, human IgG1, kappa, L234A L235A, V domains shown)
VH: B1 VH with A40R, Q43K, G62A
VL: B1 VL with G34A
B10: EM1007-mAb044c-17 (antibody, human IgG1, kappa, L234A L235A, V domains shown)
VH: EVQLQQSGAEVKKPGSSVKVSCKASGHAFSSSWMNWVKQRPGKGLEWIGRIYPGDEITNYNAKFKDKATLTADKSTSTAYMELSSLRSEDTAVYYCARDLLMPYWGQGTLVTVSS
VL: B1 VL with G34A
B11: HuEM1007-044-14 (antibody, human IgG1, kappa, L234A L235A, V domains shown)
VH: B1 VH with A40R, Q43K, G62A
VL: B2 VL with G34A, G69S
notes: as for B2
B12: EM0005-86c-1 (antibody, V domains shown)
VH: QVQLQQSGAELVRPGSSVKMSCKTSGYTFTTYGINWVKQRPGQGLEWIGYIYIGNAYTEYNEKFKGKATLTSDPSSRTAYMQLSSLTSEDSAIYFCARDLMVIAPKTMDYWGQGTSVTVSS
VL: DIQMNQSHKFMSTSVGDRVSITCKASQDVGTAVAWYQQKPGQSPKLLIYWASTRHTGVPDRFTGGGSGTDFTLTISNVQSEDLADYFCQQYSSYPYTFGGGTKLEMK
notes: Chimeric variant of EM0005-86c
B13: HuEM0005-86-21 (antibody, human IgG1, kappa, L234A L235A, V domains shown)
VH: QVQLVQSGSELKKPGASVKVSCKASGYTFTTYGINWVRQAPGQGLEWMGYIYIGNAYTEYNEKFKGRFVFSLDTSVSTAYLQICSLKAEDTAVYYCARDLMVIAPKTMDYWGQGTTVTVSS
VL: DIQMTQSPSSVSASVGDRVTITCKASQDVGTAVAWYQQKPGKAPKLLIYWASTRHTGVPSRFSGSGSGTDFTLTISSLQPEDFATYYCQQYSSYPYTFGGGTKVEIKR
notes: Humanized anti-PD-L1
B14: HuEM1007-044-6 (antibody, human IgG1, kappa, L234A L235A, V domains shown)
VH: B1 VH with G27H
VL: B2 VL with G69S
notes: as for B2
B15: HuEM1007-044-3 (antibody, human IgG1, kappa, L234A L235A, V domains shown)
VH: B1 VH with G27H, M48I, I70L
VL: B2 VL
notes: as for B2
B16: HuEM1007-044-5 (antibody, human IgG1, kappa, L234A L235A, V domains shown)
VH: B1 VH
VL: B2 VL with G69S
notes: as for B2
B17: HuEM1007-044-1 (antibody, human IgG1, kappa, L234A L235A, V domains shown)
VH: B1 VH
VL: B2 VL
notes: as for B2
B18: HuEM1007-044-2 (antibody, human IgG1, kappa, L234A L235A, V domains shown)
VH: B1 VH with G27H
VL: B2 VL
notes: as for B2

Molecular target: T1, recombinant human OX40/His fusion protein (Novoprotein, CB17) (human, UniProt P43489 29-216)
T1 construct: Bought protein
T1 sequence: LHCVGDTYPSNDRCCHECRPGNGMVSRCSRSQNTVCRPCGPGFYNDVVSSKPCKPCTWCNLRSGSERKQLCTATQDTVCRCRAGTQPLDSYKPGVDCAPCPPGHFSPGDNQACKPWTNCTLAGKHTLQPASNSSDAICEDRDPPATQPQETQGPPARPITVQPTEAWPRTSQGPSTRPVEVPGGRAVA
Test: BLI (Octet RED96), antibody on AHC sensor, OX40/His as analyte, test group 3
Procedure: (§1) All 17 antibodies in Table 4 were expressed by transient transfection of HEK293 cell, purified by Protein A chromatography, and assayed for and ranked by dissociation rate constant (koff). Briefly, antibodies binding affinities and kinetics were characterized by Octet® RED96 biolayer interferometry (Pall FortéBio LLC). Antibodies were captured by Anti-hIgG Fc Capture (AHC) Biosensors (Pall) at a concentration of 100 nM for 120 seconds. After that, sensors were dipped into running buffer (1× pH 7.2 PBS, 0.05% Tween 20, 0.1% BSA) for 60 seconds to check the baseline, then dipped into recombinant human OX40/His fusion protein (Novoprotein, CB17) at assigned concentration for 200 seconds to measure binding, followed by dipped into running buffer for 600 seconds for dissociation. The assay was conducted in four test groups (as listed in Table 5) all containing the EM1007-044c chimeric antibody as the basis for normalization. The association and dissociation curves were fitted to a 1:1 Langmuir binding model using ForteBio Data Analysis software (Pall) to obtain the off-rate constants as shown in Table 5 below. The off-rate of each antibody was compared to that of the EM1007-mAb044c chimeric antibody in the same test group obtained in parallel to produce the corresponding off-rate ratio, serving as a normalized index. […]

Binder | Normalized Index (off-rate ratio to EM1007-mAb044c) | koff
B1 | 427% | 0.0013 s⁻¹
B2 | 486% | 0.00148 s⁻¹

Molecular target: T1, recombinant human OX40/His fusion …
Test: BLI (Octet RED96), antibody on AHC sensor, OX40/His as analyte, test group 2
Procedure: as §1

Binder | Normalized Index (off-rate ratio to EM1007-mAb044c) | koff
B3 | 97% | 0.000309 s⁻¹
B4 | 343% | 0.00109 s⁻¹
B5 | 94% | 0.000299 s⁻¹
B6 | 317% | 0.00101 s⁻¹
B7 | 100% | 0.000317 s⁻¹
B8 | 255% | 0.00081 s⁻¹

Molecular target: T1, recombinant human OX40/His fusion …
Test: BLI (Octet RED96), antibody on AHC sensor, OX40/His as analyte, test group 4
Procedure: as §1

Binder | Normalized Index (off-rate ratio to EM1007-mAb044c) | koff
B9 | 340% | 0.000949 s⁻¹
B10 | 92% | 0.000256 s⁻¹
B11 | 341% | 0.000952 s⁻¹

Molecular target: T2, recombinant human PD-L1/His fusion protein (Novoprotein, Cat. No. C315) (human, UniProt Q9NZQ7 19-239)
T2 construct: also called recombinant human PD-L1-his protein
T2 sequence (Q9NZQ7 19-239 limits assumed): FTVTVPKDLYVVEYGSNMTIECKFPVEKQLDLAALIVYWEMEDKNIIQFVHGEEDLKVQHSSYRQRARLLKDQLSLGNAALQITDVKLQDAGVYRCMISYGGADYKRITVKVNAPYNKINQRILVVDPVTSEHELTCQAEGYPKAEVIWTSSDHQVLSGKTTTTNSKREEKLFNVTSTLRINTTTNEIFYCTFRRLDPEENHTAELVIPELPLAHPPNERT
Test: BLI (Octet RED96), antibody on AHC sensor, PD-L1/His as analyte, test group 1
From the text: Based on titer and purity, 10 of the 50 humanized antibodies were selected and further assayed in two groups for dissociation rate constant (koff) as shown in Table 7. Chimeric antibody EM0005-86c having VH/VL sequences identical to EM0005-mAb86 (as provided in Table 6) was used as a positive control in each group and served as a basis for normalization. Briefly, antibodies were characterized for affinities and binding kinetics by Octet® RED96 biolayer interferometry (Pall FortéBio LLC). Anti-hIgG Fc Capture (AHC) Biosensors (Pall) with antibody captured at a concentration of 100 nM for 120 seconds were dipped into running buffer (1× pH 7.2 PBS, 0.05% Tween 20, 0.1% BSA) for 60 seconds to check the baseline, then dipped into a single concentration of recombinant human PD-L1/His fusion protein (Novoprotein, Cat. No. C315) to measure binding for 200 seconds, followed by dipped into running buffer to measure dissociation for 600 seconds. The association and dissociation curves were fitted to a 1:1 Langmuir binding model using FortéBio Data Analysis software (Pall). The off-rate ratios shown in Table 7 were calculated by off-rate of a humanized antibody to that of EM0005-86c in the same test group. The off-rate ratio serves as a normalized index, so that the humanized antibodies can be compared to one another across test groups. The lower off-rate ratio indicates higher affinity of an antibody for human PD-L1. HuEM0005-86-21 was selected for further investigation based on the purity and off-rate data.

Binder | Off-Rate Ratio to EM0005-86c | koff
B12 | 69% | 0.000188 s⁻¹
B13 | 88% | 0.000239 s⁻¹

Molecular target: T1, recombinant human OX40/His fusion …
Test: BLI (Octet RED96), antibody on AHC sensor, OX40/His as analyte, test group 1
Procedure: as §1

Binder | Normalized Index (off-rate ratio to EM1007-mAb044c) | koff
B14 | 331% | 0.00111 s⁻¹
B15 | 255% | 0.000859 s⁻¹
B16 | 243% | 0.000818 s⁻¹
B17 | 306% | 0.00103 s⁻¹
B18 | 281% | 0.000944 s⁻¹
